Measurements published in patent US20130089497A1 (Genentech, published 2013).
Changes are numbered by the printed parent chain.

T1: cynomolgus FcRH5 on stably transfected SVT2 cells (cynomologous monkey)
T1 construct: also called cyno FcRH5; cynoFcRH5
T1 chain: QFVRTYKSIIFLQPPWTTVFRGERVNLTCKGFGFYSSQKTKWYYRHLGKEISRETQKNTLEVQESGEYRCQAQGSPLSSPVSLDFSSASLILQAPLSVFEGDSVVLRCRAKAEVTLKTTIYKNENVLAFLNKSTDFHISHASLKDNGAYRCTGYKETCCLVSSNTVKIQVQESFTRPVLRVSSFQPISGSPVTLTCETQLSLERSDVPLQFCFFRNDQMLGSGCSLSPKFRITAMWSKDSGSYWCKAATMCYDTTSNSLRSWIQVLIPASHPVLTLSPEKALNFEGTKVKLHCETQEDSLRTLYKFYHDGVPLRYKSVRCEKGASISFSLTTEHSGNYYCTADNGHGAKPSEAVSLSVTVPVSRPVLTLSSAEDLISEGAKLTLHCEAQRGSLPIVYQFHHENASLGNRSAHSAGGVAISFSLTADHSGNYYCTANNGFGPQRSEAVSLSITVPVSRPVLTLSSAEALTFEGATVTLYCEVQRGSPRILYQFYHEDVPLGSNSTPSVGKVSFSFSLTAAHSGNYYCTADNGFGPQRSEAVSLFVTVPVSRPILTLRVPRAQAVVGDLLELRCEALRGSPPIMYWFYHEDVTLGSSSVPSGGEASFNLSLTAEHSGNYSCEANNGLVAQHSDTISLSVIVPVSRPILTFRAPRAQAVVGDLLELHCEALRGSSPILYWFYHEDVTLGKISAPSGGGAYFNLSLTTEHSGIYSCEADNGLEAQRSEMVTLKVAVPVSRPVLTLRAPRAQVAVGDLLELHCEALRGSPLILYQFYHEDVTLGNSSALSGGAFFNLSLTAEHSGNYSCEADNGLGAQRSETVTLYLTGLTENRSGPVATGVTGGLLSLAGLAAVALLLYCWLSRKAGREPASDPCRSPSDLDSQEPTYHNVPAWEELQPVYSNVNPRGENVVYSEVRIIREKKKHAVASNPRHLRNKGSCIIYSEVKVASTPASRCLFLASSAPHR

T2: human FcRH5 on stably transfected cells (BJAB.huFcRH5, OPM2.huFcRH5) (human, UniProt Q96RD9 16-977)
T2 construct: also called BJAB-FcRH5; OPM2-FcRH5
T2 chain: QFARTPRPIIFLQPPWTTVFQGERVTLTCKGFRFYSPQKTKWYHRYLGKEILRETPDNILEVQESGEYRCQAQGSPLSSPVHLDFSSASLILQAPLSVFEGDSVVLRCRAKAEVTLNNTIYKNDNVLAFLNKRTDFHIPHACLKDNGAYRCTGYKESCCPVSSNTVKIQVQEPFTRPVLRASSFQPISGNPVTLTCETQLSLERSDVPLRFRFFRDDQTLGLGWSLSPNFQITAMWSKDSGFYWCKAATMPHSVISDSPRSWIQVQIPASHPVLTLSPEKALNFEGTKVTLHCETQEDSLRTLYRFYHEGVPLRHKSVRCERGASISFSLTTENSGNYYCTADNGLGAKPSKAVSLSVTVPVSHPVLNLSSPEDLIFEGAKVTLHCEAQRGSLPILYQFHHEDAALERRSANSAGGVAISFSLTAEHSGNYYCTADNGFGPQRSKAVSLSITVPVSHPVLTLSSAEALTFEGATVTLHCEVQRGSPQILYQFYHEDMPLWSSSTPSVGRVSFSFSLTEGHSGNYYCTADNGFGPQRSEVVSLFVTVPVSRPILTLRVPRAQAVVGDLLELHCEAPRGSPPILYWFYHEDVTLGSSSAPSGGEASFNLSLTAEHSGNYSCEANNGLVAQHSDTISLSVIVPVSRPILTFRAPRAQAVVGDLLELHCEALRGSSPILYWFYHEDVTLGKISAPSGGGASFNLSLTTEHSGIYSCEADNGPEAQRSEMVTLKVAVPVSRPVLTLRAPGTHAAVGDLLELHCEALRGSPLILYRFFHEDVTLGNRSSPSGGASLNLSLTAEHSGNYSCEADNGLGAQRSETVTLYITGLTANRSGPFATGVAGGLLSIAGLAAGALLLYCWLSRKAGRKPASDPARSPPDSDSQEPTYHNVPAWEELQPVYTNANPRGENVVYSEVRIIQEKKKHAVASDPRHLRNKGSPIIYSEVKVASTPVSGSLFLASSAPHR

B1: humanized anti-FcRH5 antibody 13G9 version 1 (antibody, human IgG1, V domains shown)
VH: EVQLVQSGGGLVQPGGSLRLSCAASGYTFTNYGMNWVRQAPGKGLEWVGWVNTYTGEPTYTDDFKGRFTFSVDTSKSTVYLQMNSLRAEDTAVYYCARRSIPYYYAMDYWGQGTLVTVS
VL: DIQMTQSPSSLSASVGDRVTITCKASQNVGSNVAWYQQKPGKAPKALIYSASYRYSGVPSRFSGSGSGTDFTLTISSLQPEDFATYYCQQYKTWTFGQGTKVEIKR
notes: also called hu13G9.v1; hu13G9 v1
B2: humanized anti-FcRH5 antibody hu13G9.1b (antibody, human IgG1, V domains shown)
VH: B1 VH
VL: B1 VL with Y87F
notes: Full IgG as hu13G9.1a (human IgG1, kappa)

Assays:
[1] = molecular target: T1, cynomolgus FcRH5 on stably transfected …; assay: Scatchard analysis: 0.5 nM 125I-labeled antibody competed with the unlabeled antibody (50 to 0.02 nM) on SVT2.cyFcRH5 cells, 4 h at 4 C; St. Error 0.027
Procedure: (§1) To further determine binding of the FcRH5 murine antibodies and IgG clones, binding of iodinated IgG variants to OPM2 cells expressing human FcRH5 and SVT2 cells expressing cynomologous FcRH5, Scatchard analysis was performed (Table 9A).
(§2) For Scatchard analysis, 0.5 nM I¹²⁵ labeled murine or IgG clone anti-FcRH5 was competed against unlabeled murine or IgG clone anti-FcRH5, respectively, ranging from 50 to 0.02 nM (12 step 1:2 serial dilution) in the presence of a transfected OPM2 line stably expressing human-FcRH5 and a transfected SVT2 line stably expressing cynomologous-FcRH5. After a four hour incubation at 4° C., cells were washed and cell pellet counts were read by a gamma counter (1470 WIZARD Automatic Gamma Counter; Perkin Elmer, Walthem, Mass.). All points were done in triplicate and counted for 10 minutes. The average CPM was used for Kd calculation using the New Ligand (Genentech, South San Francisco, Calif.) program.

[2] = molecular target: T2, human FcRH5 on stably transfected cells …; assay: Scatchard analysis: 0.5 nM 125I-labeled antibody competed with the unlabeled antibody (50 to 0.02 nM) on OPM2.huFcRH5 cells, 4 h at 4 C; St. Error 0.012
Procedure: as §1, §2

[3] = molecular target: T1, cynomolgus FcRH5 on stably transfected …; assay: Scatchard analysis: 0.5 nM 125I-labeled antibody competed with the unlabeled antibody (50 to 0.02 nM) on SVT2.cyFcRH5 cells (printed SVT2.cyFcRHS), 4 h at 4 C; St. Error 0.012
Procedure: as §1, §2

[4] = molecular target: T2, human FcRH5 on stably transfected cells …; assay: Scatchard analysis: 0.5 nM 125I-labeled antibody competed with the unlabeled antibody (50 to 0.02 nM) on OPM2.huFcRH5 cells, 4 h at 4 C; St. Error 0.027
Procedure: as §1, §2

Binder	Kd [1] [nM]	Kd [2] [nM]	Kd [3] [nM]	Kd [4] [nM]
B1	0.56	0.2		
B2			0.53	0.3
